Values joined by “and” are separate entries in the source; they are usually repeats but may differ in a detail not shown here. Equal values may be shown once. One block for each substance: values may come before it.
What was measured:
ABL2 SH2 domain (human) = ABL2 SH2 domain (human) (UniProt P42684); test: peptide or protein array; SH2/PTB proteins spotted on aldehyde slides, rhodamine peptide titrated in buffer B (20 mM HEPES, 100 mM KCl, 0.1% Tween-20, 5 mM DTT, pH 7.8), 1 h at room temperature; replicate assays
GRAP2 SH2 domain (human) = GRAP2 SH2 domain (human) (UniProt O75791); test: as above
GRB10 SH2 domain (human) = GRB10 SH2 domain (human) (UniProt Q13322); test: as above
HSH2D SH2 domain (human) = HSH2D SH2 domain (human) (UniProt Q96JZ2); test: as above
LCK SH2 domain (human) = LCK SH2 domain (human) (UniProt P06239); test: as above
NCK1 SH2 domain (human) = NCK1 SH2 domain (human) (UniProt P16333); test: as above
[1] = target: PIK3R1 C-terminal SH2 domain (human); test: as above
[2] = target: PIK3R3 tandem SH2 domains (human); test: as above
[3] = target: PTPN11 tandem SH2 domains (human); test: as above
[4] = target: RASA1 C-terminal SH2 domain (human); test: as above
[5] = target: RASA1 N-terminal SH2 domain (human) (UniProt P20936); test: as above
SH2B3 SH2 domain (human) = SH2B3 SH2 domain (human) (UniProt Q9UQQ2); test: as above
[6] = target: SH2D1A SH2 domain (human) (UniProt O60880); test: as above
[7] = target: SH2D1B SH2 domain (human) (UniProt O14796); test: as above
[8] = target: SH2D3A SH2 domain (human) (UniProt Q9BRG2); test: as above
[9] = target: SH2D3C SH2 domain (human) (UniProt Q8N5H7); test: as above
SHC3 SH2 domain (human) = SHC3 SH2 domain (human) (UniProt Q92529); test: as above
SHF SH2 domain (human) = SHF SH2 domain (human) (UniProt Q7M4L6); test: as above
[10] = target: SYK N-terminal SH2 domain (human); test: as above
YES1 SH2 domain (human) = YES1 SH2 domain (human) (UniProt P07947); test: as above
[11] = target: ZAP70 C-terminal SH2 domain (human) (UniProt P43403); test: as above
ABL1 SH2 domain (human) = ABL1 SH2 domain (human) (UniProt P00519); test: as above
BLK SH2 domain (human) = BLK SH2 domain (human) (UniProt P51451); test: as above
BLNK SH2 domain (human) = BLNK SH2 domain (human) (UniProt Q8WV28); test: as above
BMX SH2 domain (human) = BMX SH2 domain (human) (UniProt P51813); test: as above
CRK SH2 domain (human) = CRK SH2 domain (human) (UniProt P46108); test: as above
CRKL SH2 domain (human) = CRKL SH2 domain (human) (UniProt P46109); test: as above
HCK SH2 domain (human) = HCK SH2 domain (human) (UniProt P08631); test: as above
NCK2 SH2 domain (human) = NCK2 SH2 domain (human) (UniProt O43639); test: as above
[12] = target: PIK3R2 tandem SH2 domains (human) (UniProt O00459); test: as above
[13] = target: PLCG2 tandem SH2 domains (human); test: as above
[14] = target: SH3BP2 SH2 domain (human) (UniProt P78314); test: as above
SRC SH2 domain (human) = SRC SH2 domain (human) (UniProt P12931); test: as above
[15] = target: SYK tandem SH2 domains (human); test: as above
TNS4 SH2 domain (human) = TNS4 SH2 domain (human) (UniProt Q8IZW8); test: as above
[16] = target: ErbB3 Y789 non-phosphorylated peptide, rhodamine-labelled (human); test: fluorescence polarisation; saturation binding in solution: rhodamine peptide fixed at 10 nM, protein titrated 0.002-10 uM, 20 min at room temperature; assay buffer 20 mM HEPES, 100 mM KCl, 0.1% Tween-20, 5 mM DTT, pH 7.8; apparent KD

YES1 SH2 domain (human), sequence (P07947 158-255): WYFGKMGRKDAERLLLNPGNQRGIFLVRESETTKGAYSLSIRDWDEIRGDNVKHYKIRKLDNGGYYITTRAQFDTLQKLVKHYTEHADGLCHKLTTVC
SH3BP2 SH2 domain (human), sequence (P78314 457-555): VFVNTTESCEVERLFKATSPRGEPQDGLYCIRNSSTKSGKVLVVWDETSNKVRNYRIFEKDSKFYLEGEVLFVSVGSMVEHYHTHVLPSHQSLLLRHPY
SHF SH2 domain (human), sequence (Q7M4L6 323-418): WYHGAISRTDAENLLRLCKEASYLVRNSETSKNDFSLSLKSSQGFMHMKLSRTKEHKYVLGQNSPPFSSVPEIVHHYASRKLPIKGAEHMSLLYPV
SH2D1A SH2 domain (human), sequence (O60880 6-104): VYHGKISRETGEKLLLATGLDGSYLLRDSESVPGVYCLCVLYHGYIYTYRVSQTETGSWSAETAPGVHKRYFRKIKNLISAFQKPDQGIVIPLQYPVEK
SH2D3A SH2 domain (human), sequence (Q9BRG2 15-114): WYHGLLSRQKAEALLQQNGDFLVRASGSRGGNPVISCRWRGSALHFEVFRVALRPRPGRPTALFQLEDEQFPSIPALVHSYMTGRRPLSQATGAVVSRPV
BLK SH2 domain (human), sequence (P51451 124-220): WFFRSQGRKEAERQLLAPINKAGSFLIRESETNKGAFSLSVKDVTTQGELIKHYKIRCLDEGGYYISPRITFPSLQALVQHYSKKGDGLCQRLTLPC
ZAP70 C-terminal SH2 domain (human), sequence (P43403 whole entry, the tested form may be a part): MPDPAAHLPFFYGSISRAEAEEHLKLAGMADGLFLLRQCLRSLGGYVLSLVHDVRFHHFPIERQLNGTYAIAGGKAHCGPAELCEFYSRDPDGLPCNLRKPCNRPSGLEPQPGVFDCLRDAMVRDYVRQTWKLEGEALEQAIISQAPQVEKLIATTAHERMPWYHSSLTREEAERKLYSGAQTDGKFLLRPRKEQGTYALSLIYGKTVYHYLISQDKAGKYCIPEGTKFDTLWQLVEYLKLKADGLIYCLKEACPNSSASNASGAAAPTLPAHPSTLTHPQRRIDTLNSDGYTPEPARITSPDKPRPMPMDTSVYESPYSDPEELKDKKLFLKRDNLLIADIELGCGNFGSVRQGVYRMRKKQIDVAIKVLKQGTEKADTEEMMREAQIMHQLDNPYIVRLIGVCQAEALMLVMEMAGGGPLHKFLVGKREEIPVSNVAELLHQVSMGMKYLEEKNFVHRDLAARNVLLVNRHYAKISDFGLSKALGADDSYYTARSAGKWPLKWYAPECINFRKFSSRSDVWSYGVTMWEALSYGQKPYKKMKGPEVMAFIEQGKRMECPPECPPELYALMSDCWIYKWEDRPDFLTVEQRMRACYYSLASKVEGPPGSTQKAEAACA
ABL2 SH2 domain (human), sequence (P42684 173-263): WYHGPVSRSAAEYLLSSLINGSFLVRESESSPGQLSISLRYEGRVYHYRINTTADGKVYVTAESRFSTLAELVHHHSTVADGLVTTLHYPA
SH2D1B SH2 domain (human), sequence (O14796 5-101): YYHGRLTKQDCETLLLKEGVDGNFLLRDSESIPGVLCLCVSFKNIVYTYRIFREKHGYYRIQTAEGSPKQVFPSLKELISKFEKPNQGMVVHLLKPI
HSH2D SH2 domain (human), sequence (Q96JZ2 34-125): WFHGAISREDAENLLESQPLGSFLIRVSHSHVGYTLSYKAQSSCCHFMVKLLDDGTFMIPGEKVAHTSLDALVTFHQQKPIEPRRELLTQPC
GRB10 SH2 domain (human), sequence (Q13322 493-574): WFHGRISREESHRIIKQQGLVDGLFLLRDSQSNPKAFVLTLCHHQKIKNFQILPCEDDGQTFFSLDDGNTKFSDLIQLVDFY
SH2D3C SH2 domain (human), sequence (Q8N5H7 220-319): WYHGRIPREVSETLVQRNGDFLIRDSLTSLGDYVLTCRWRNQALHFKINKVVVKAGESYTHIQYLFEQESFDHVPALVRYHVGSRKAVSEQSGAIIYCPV
BLNK SH2 domain (human), sequence (Q8WV28 346-453): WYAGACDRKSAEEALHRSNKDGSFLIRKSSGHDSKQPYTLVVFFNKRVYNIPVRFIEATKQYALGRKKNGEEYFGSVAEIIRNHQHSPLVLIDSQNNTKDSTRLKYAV
ABL1 SH2 domain (human), sequence (P00519 127-217): as the sequence (P42684 173-263) above, with S9N, L18G, L35R, T53A, A54S, V58L, T61S, A62S, S67N, V84I counted along it
RASA1 N-terminal SH2 domain (human), sequence (P20936 whole entry, the tested form may be a part): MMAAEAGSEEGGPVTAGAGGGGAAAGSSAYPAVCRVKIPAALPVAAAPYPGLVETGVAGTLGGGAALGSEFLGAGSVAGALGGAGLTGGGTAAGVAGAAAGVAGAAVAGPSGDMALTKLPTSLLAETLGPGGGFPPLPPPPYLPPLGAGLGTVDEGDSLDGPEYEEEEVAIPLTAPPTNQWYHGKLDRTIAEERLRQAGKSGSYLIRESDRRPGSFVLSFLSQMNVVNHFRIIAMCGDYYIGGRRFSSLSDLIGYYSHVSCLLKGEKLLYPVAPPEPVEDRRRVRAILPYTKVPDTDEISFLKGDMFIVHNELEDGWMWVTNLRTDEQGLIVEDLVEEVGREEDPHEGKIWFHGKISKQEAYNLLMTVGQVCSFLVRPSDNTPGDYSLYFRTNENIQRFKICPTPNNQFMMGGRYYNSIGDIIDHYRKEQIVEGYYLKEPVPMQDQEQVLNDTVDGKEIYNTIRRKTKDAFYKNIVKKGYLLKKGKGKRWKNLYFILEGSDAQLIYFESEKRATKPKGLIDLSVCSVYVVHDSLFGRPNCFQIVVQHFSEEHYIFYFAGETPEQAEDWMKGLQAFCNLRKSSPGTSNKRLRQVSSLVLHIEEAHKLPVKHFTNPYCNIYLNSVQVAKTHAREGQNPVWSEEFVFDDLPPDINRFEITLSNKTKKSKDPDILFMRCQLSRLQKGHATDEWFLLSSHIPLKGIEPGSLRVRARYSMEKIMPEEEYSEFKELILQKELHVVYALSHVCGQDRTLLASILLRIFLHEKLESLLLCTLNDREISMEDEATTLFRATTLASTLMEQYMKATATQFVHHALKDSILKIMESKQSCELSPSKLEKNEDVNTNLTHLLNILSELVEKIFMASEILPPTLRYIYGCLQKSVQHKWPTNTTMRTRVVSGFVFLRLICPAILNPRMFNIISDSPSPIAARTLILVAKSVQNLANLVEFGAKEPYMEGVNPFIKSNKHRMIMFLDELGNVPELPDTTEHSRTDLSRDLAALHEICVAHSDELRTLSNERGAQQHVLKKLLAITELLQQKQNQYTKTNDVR
NCK2 SH2 domain (human), sequence (O43639 285-380): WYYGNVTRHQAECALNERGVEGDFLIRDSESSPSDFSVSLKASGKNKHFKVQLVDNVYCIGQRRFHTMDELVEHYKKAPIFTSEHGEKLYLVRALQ
BMX SH2 domain (human), sequence (P51813 296-392): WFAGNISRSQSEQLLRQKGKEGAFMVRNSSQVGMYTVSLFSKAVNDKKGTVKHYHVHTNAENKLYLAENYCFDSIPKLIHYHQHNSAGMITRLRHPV
LCK SH2 domain (human), sequence (P06239 127-224): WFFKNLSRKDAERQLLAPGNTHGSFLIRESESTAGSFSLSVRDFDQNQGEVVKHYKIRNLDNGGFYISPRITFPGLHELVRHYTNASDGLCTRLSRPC
CRKL SH2 domain (human), sequence (P46109 14-102): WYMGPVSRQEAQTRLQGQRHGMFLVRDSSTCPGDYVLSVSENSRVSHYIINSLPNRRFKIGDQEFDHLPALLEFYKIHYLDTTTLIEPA
SH2B3 SH2 domain (human), sequence (Q9UQQ2 364-462): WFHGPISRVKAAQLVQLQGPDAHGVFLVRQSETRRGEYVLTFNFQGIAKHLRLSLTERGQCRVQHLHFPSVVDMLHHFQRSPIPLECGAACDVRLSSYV
PIK3R2 tandem SH2 domains (human), sequence (O00459 whole entry, the tested form may be a part): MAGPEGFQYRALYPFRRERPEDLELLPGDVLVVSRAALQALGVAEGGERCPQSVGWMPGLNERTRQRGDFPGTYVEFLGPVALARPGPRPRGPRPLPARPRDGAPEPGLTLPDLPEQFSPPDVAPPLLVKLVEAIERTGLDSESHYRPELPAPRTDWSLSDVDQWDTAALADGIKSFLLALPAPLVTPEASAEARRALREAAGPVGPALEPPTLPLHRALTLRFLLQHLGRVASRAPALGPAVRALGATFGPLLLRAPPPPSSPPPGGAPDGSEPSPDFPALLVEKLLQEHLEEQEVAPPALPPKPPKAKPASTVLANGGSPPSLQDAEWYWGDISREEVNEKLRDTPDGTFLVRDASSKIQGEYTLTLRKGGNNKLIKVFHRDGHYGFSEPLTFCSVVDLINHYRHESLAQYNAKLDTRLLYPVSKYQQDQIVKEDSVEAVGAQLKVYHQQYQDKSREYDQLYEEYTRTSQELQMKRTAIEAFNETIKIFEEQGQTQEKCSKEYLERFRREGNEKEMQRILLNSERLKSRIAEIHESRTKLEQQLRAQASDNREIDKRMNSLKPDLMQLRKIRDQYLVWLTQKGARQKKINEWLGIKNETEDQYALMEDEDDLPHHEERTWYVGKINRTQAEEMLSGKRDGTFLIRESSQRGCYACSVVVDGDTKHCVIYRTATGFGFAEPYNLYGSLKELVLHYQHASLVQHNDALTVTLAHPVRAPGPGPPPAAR
HCK SH2 domain (human), sequence (P08631 144-241): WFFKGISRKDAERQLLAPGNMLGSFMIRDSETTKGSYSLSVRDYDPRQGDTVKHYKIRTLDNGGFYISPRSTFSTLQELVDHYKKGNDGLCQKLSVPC
CRK SH2 domain (human), sequence (P46108 13-118): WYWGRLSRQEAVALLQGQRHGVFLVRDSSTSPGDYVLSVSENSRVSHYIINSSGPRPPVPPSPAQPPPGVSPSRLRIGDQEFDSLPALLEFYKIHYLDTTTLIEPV
SHC3 SH2 domain (human), sequence (Q92529 499-590): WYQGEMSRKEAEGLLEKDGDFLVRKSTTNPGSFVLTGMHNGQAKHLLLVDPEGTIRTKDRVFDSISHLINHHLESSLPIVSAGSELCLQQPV
GRAP2 SH2 domain (human), sequence (O75791 58-149): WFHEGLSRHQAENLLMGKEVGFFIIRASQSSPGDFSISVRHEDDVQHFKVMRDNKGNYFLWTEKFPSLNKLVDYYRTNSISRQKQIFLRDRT

Kd (ABL2 SH2 domain (human)): 1370 nM and 1730 nM and 268 nM
Kd (GRAP2 SH2 domain (human)): 852 nM
Kd (GRB10 SH2 domain (human)): 1270 nM
Kd (HSH2D SH2 domain (human)): 2210 nM
Kd (LCK SH2 domain (human)): 1240 nM
Kd (NCK1 SH2 domain (human)): 724 nM
Kd [1]: 438 nM
Kd [2]: 7820 nM and 10500 nM
Kd [3]: 177 nM
Kd [4]: 10400 nM
Kd [5]: 685 nM
Kd (SH2B3 SH2 domain (human)): 1180 nM
Kd [6]: 823 nM and 1610 nM and 1680 nM
Kd [7]: 404 nM and 1280 nM and 1340 nM
Kd [8]: 603 nM and 790 nM and 912 nM
Kd [9]: 9360 nM
Kd (SHC3 SH2 domain (human)): 7660 nM
Kd (SHF SH2 domain (human)): 2700 nM and 8500 nM
Kd [10]: 3040 nM and 3450 nM and 803 nM
Kd (YES1 SH2 domain (human)): 1180 nM and 1170 nM and 421 nM
Kd [11]: 1530 nM and 1520 nM and 404 nM
Substance: ErbB4 pY733 phosphopeptide (18-mer), rhodamine-labelled, for protein microarrays

Kd (ABL1 SH2 domain (human)): 250 nM
Kd (ABL2 SH2 domain (human)): 906 nM and 283 nM
Kd (BLK SH2 domain (human)): 1150 nM and 1160 nM and 583 nM
Kd (BLNK SH2 domain (human)): 4000 nM
Kd (BMX SH2 domain (human)): 419 nM
Kd (CRK SH2 domain (human)): 64500 nM
Kd (CRKL SH2 domain (human)): 107 nM
Kd (GRB10 SH2 domain (human)): 234 nM
Kd (HCK SH2 domain (human)): 70 nM
Kd (HSH2D SH2 domain (human)): 994 nM
Kd (NCK2 SH2 domain (human)): 211 nM
Kd [12]: 1340 nM
Kd [2]: 544 nM
Kd [13]: 1250 nM and 1380 nM
Kd [6]: 766 nM
Kd [8]: 605 nM
Kd [14]: 2360 nM and 10900 nM and 1240 nM
Kd (SHF SH2 domain (human)): 1190 nM
Kd (SRC SH2 domain (human)): 443 nM
Kd [10]: 15600 nM and 9490 nM
Kd [15]: 811 nM and 1290 nM and 285 nM
Kd (TNS4 SH2 domain (human)): 323 nM
Kd (YES1 SH2 domain (human)): 1320 nM and 818 nM
Kd [11]: 791 nM
Substance: ErbB4 pY1221 phosphopeptide (18-mer), rhodamine-labelled, for protein microarrays

Kd [16]: 1590 nM
Substance: PIK3R1 tandem SH2 domains (from UniProt P27986 1-724) (domain or fragment)

— paper PMC3433420
